# According to patent publication US20240116985A1 (published 2024):
# Starred links: 1 amine or outer side, 2 acyl side, 3 side chain; linkers in the order of their positions; H or OH if unused. Positions of bridges follow the written chain, without caps; N, C: chain ends. Non-standard residues stand in square brackets, D forms with d. Primed or numbered codes have the meaning given here. PyrS(3) = (S)-1-((allyloxy)carbonyl)-3-aminopyrrolidine-3-carboxylic acid, stapling residue, C=CCOC(=O)N1CC[C@@](N[*:1])(C(=O)[*:2])C1; PyrS″ = (S)-1-((allyloxy)carbonyl)-3-aminopyrrolidine-3-carboxylic acid (stapling residue), C=CCOC(=O)N1CC[C@@](N[*:1])(C(=O)[*:2])C1; PyrS = (S)-1-((allyloxy)carbonyl)-3-aminopyrrolidine-3-carboxylic acid, C=CCOC(=O)N1CC[C@@](N[*:1])(C(=O)[*:2])C1; Phe(3-CONH2) = NC(=O)c1cccc(C[C@H](N)C(=O)O)c1; Phe(4-CONH2) = NC(=O)c1ccc(C[C@H](N)C(=O)O)cc1; Phe(4-COOH) = N[C@@H](Cc1ccc(C(=O)O)cc1)C(=O)O; Phe(2-CONH2) = NC(=O)c1ccccc1C[C@H](N)C(=O)O; Phe(3-OMe) = COc1cccc(C[C@H](N)C(=O)O)c1; 1Nal = N[C@@H](Cc1cccc2ccccc12)C(=O)O; 2Nal = N[C@@H](Cc1ccc2ccccc2c1)C(=O)O; Ala(cPent) = N[C@@H](CC1CCCC1)C(=O)O; hPhe = N[C@@H](CCc1ccccc1)C(=O)O; 2Pal = N[C@@H](Cc1ccccn1)C(=O)O; 3Pal = N[C@@H](Cc1cccnc1)C(=O)O; R8 = C=CCCCCCC[C@@](C)(N)C(=O)O
# B1: I-86 (peptide)
# peptide: Ac-FDA[R8]DDAA[2Pal]V[PyrS]FWQ-NH2
# modifications: staple 4-11
# notes: Stapled peptide; also called Ac-Phe-Asp-Ala-R8-Asp-Asp-Ala-Ala-2PyrA-Val-PyrS-Phe-Trp-Gln-NH2
# B2: I-87 (peptide)
# peptide: Ac-FDA[R8]DDAA[3Pal]V[PyrS″]FWQ-NH2
# modifications: staple 4-11; not fully specified; printed as Ac-Phe-Asp-Ala-R8-Asp-Asp-Ala-Ala-3PyrA-Val-PyrS-Phe-Trp-Gln-NH2
# notes: Stapled peptide; also called Ac-Phe-Asp-Ala-R8-Asp-Asp-Ala-Ala-3PyrA-Val-PyrS-Phe-Trp-Gln-NH2
# B3: I-88 (peptide)
# peptide: Ac-FDA[R8]DDAA[3Pal]V[PyrS″]FWQ-NH2
# modifications: staple 4-11; not fully specified; printed as Ac-Phe-Asp-Ala-R8-Asp-Asp-Ala-Ala-3PyrA-Val-PyrS-Phe-Trp-Gln-NH2
# notes: as for B2
# B4: I-89 (peptide)
# peptide: Ac-FDA[R8]DDAAFV[PyrS″][Phe(4-CONH2)]WQ-NH2
# modifications: staple 4-11; not fully specified; printed as Ac-Phe-Asp-Ala-R8-Asp-Asp-Ala-Ala-Phe-Val-PyrS-4CBMF-Trp-Gln-NH2
# notes: Stapled peptide; also called Ac-Phe-Asp-Ala-R8-Asp-Asp-Ala-Ala-Phe-Val-PyrS-4CBMF-Trp-Gln-NH2
# B5: I-90 (peptide)
# peptide: Ac-FDA[R8]DDAAFV[PyrS″][Phe(4-CONH2)]WQ-NH2
# modifications: staple 4-11
# notes: as for B4
# B6: I-91 (peptide)
# peptide: Ac-FDA[R8]DDAA[Phe(4-CONH2)]V[PyrS″]FWQ-NH2
# modifications: staple 4-11
# notes: Stapled peptide composition; same description as I-92, separate earlier-eluting HPLC peak (staple isomer)
# B7: I-99 (peptide)
# peptide: Ac-FDA[R8]DFAAFV[PyrS]FWQ-NH2
# modifications: staple 4-11; not fully specified; printed as Ac-Phe-Asp-Ala-R8-Asp-Phe-Ala-Ala-Phe-Val-PyrS-Phe-Trp-Gln-NH2
# notes: Stapled peptide composition; same description as I-100, separate earlier-eluting HPLC peak (staple isomer)
# B8: I-100 (peptide)
# peptide: Ac-FDA[R8]DFAAFV[PyrS″]FWQ-NH2
# modifications: staple 4-11
# notes: Stapled peptide composition; same description as I-99, separate later-eluting HPLC peak (staple isomer)
# B9: I-122 (peptide)
# peptide: Ac-FDA[R8]DDAAFV[PyrS″]DWQ-NH2
# modifications: staple 4-11; not fully specified; printed as Ac-Phe-Asp-Ala-R8-Asp-Asp-Ala-Ala-Phe-Val-PyrS-Asp-Trp-Gln-NH2
# notes: Stapled peptide composition
# B10: I-92 (peptide)
# peptide: Ac-FDA[R8]DDAA[Phe(4-CONH2)]V[PyrS″]FWQ-NH2
# modifications: staple 4-11
# notes: Stapled peptide composition; same description as I-91, separate later-eluting HPLC peak (staple isomer)
# B11: I-93 (peptide)
# peptide: Ac-FDA[R8]DDAAFV[PyrS″][Ala(cPent)]WQ-NH2
# modifications: staple 4-11
# notes: Stapled peptide composition; same description as I-94, separate earlier-eluting HPLC peak (staple isomer)
# B12: I-94 (peptide)
# peptide: Ac-FDA[R8]DDAAFV[PyrS][Ala(cPent)]WQ-NH2
# modifications: staple 4-11
# notes: Stapled peptide composition; same description as I-93, separate later-eluting HPLC peak (staple isomer)
# B13: I-95 (peptide)
# peptide: Ac-FDA[R8]DDAA[Ala(cPent)]V[PyrS″]FWQ-NH2
# modifications: staple 4-11
# notes: Stapled peptide composition; same description as I-96, separate earlier-eluting HPLC peak (staple isomer)
# B14: I-96 (peptide)
# peptide: Ac-FDA[R8]DDAA[Ala(cPent)]V[PyrS]FWQ-NH2
# modifications: staple 4-11
# notes: Stapled peptide composition; same description as I-95, separate later-eluting HPLC peak (staple isomer)
# B15: I-97 (peptide)
# peptide: Ac-FDA[R8]D[hPhe]AAFV[PyrS″]FWQ-NH2
# modifications: staple 4-11; not fully specified; printed as Ac-Phe-Asp-Ala-R8-Asp-hPhe-Ala-Ala-Phe-Val-PyrS-Phe-Trp-Gln-NH2
# notes: Stapled peptide composition; same description as I-98, separate earlier-eluting HPLC peak (staple isomer)
# B16: I-98 (peptide)
# peptide: Ac-FDA[R8]D[hPhe]AAFV[PyrS″]FWQ-NH2
# modifications: staple 4-11; not fully specified; printed as Ac-Phe-Asp-Ala-R8-Asp-hPhe-Ala-Ala-Phe-Val-PyrS-Phe-Trp-Gln-NH2
# notes: Stapled peptide composition; same description as I-97, separate later-eluting HPLC peak (staple isomer)
# B17: I-101 (peptide)
# peptide: Ac-FDA[R8]DDAAFV[PyrS″][Phe(3-OMe)]WQ-NH2
# modifications: staple 4-11; not fully specified; printed as Ac-Phe-Asp-Ala-R8-Asp-Asp-Ala-Ala-Phe-Val-PyrS-3OMeF-Trp-Gln-NH2
# notes: Stapled peptide composition
# B18: I-102 (peptide)
# peptide: Ac-FDA[R8]DDAAFV[PyrS″][Phe(3-OMe)]WQ-NH2
# modifications: staple 4-11; not fully specified; printed as Ac-Phe-Asp-Ala-R8-Asp-Asp-Ala-Ala-Phe-Val-PyrS-3OMeF-Trp-Gln-NH2
# notes: Stapled peptide composition
# B19: I-103 (peptide)
# peptide: Ac-FDA[R8]DDAA[Phe(3-OMe)]V[PyrS″]FWQ-NH2
# modifications: staple 4-11; not fully specified; printed as Ac-Phe-Asp-Ala-R8-Asp-Asp-Ala-Ala-3OMeF-Val-PyrS-Phe-Trp-Gln-NH2
# notes: Stapled peptide composition
# B20: I-104 (peptide)
# peptide: Ac-FDA[R8]DDAA[Phe(3-OMe)]V[PyrS″]FWQ-NH2
# modifications: staple 4-11; not fully specified; printed as Ac-Phe-Asp-Ala-R8-Asp-Asp-Ala-Ala-3OMeF-Val-PyrS-Phe-Trp-Gln-NH2
# notes: Stapled peptide composition
# B21: I-105 (peptide)
# peptide: Ac-FDA[R8]DDAAFV[PyrS″][Phe(2-CONH2)]WQ-NH2
# modifications: staple 4-11; not fully specified; printed as Ac-Phe-Asp-Ala-R8-Asp-Asp-Ala-Ala-Phe-Val-PyrS-2CBMF-Trp-Gln-NH2
# notes: Stapled peptide composition
# B22: I-106 (peptide)
# peptide: Ac-FDA[R8]DDAAFV[PyrS][Phe(2-CONH2)]WQ-NH2
# modifications: staple 4-11; not fully specified; printed as Ac-Phe-Asp-Ala-R8-Asp-Asp-Ala-Ala-Phe-Val-PyrS-2CBMF-Trp-Gln-NH2
# notes: Stapled peptide composition
# B23: I-108 (peptide)
# peptide: Ac-FDA[R8]DDAA[Phe(3-CONH2)]V[PyrS″]FWQ-NH2
# modifications: staple 4-11; not fully specified; printed as Ac-Phe-Asp-Ala-R8-Asp-Asp-Ala-Ala-3CBMF-Val-PyrS-Phe-Trp-Gln-NH2
# notes: Stapled peptide composition
# B24: I-109 (peptide)
# peptide: Ac-FDA[R8]DDAA[Phe(3-CONH2)]V[PyrS″]FWQ-NH2
# modifications: staple 4-11; not fully specified; printed as Ac-Phe-Asp-Ala-R8-Asp-Asp-Ala-Ala-3CBMF-Val-PyrS-Phe-Trp-Gln-NH2
# notes: Stapled peptide composition
# B25: I-110 (peptide)
# peptide: Ac-FDA[R8]DDAAFV[PyrS″][Phe(4-COOH)]WQ-NH2
# modifications: staple 4-11; not fully specified; printed as Ac-Phe-Asp-Ala-R8-Asp-Asp-Ala-Ala-Phe-Val-PyrS-4COOHF-Trp-Gln-NH2
# notes: Stapled peptide composition
# B26: I-111 (peptide)
# peptide: Ac-FDA[R8]DDAAFV[PyrS″][Phe(4-COOH)]WQ-NH2
# modifications: staple 4-11
# notes: Stapled peptide composition; same description as I-110, separate later-eluting HPLC peak (staple isomer)
# Target: T1, full-length beta-Catenin (Uniprot ID P35222) (Homo sapiens (Human), UniProt P35222 2-781)
# T1 construct: Used full-length in both the FP and the AlphaScreen assay; also called B-Catenin; bCat
# T1 sequence: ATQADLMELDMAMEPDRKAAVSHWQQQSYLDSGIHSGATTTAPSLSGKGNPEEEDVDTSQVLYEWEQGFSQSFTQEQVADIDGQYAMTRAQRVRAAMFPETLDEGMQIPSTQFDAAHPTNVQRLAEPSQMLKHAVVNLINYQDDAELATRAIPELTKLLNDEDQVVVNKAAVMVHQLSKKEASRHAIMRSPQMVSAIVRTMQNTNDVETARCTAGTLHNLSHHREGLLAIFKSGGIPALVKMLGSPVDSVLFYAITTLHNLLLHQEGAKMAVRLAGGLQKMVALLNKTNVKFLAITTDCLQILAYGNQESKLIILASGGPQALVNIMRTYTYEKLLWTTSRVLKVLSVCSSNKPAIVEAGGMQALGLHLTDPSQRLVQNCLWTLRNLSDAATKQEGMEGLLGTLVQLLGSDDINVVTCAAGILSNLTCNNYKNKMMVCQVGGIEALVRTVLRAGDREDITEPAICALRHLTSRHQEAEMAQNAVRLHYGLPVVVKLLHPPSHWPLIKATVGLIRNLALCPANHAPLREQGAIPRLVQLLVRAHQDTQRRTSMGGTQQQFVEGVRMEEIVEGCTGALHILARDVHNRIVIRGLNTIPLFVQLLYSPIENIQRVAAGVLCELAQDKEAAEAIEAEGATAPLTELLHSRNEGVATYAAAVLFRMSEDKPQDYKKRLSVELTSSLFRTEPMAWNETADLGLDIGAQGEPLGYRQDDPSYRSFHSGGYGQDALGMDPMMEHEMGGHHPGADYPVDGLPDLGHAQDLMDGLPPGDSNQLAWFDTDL
# Experiment: AlphaScreen competition; full-length beta-catenin, biotin-TCF4(10-53) probe
# Experimental: (§1) Equal volume of the titrated peptide was added to the plate and incubated for 15 minutes at 20° C. Then 4 uL of donor and 4 uL acceptor beads at 10 ug/mL were added to the plate, for a 16 uL reaction pool and protected from light for 60 minutes at 20° C. prior to read. Reads were performed on a CLARIOstar plate reader (BMG Labtech) in duplicate, and data were fitted to a 1:1 binding model with hill slope using an in-house script. All provided concentrations are final concentrations.
row,Binder,EC50
1,B1,≥ 10 µM
2,B2,≥ 10 µM
3,B3,≥ 10 µM
4,B4,5.64 µM
5,B5,≥ 10 µM

# Target: T2, full-length beta-Catenin (Uniprot ID P35222) (Homo sapiens (Human), UniProt P35222 2-781)
# T2 construct: also called B-Catenin; bCat
# T2 sequence: T1 sequence
# Experiment: Alphascreen competition; biotin-TCF4(10-53) probe with full-length beta-catenin
# Experimental: as §1
row,Binder,EC50
1,B6,4.72 µM
2,B7,≥ 10 µM
3,B8,9.23 µM
4,"Ac-FDA[R8]DDAAFV[PyrS(3)]DWQ-NH2 (staple 4-11, Stapled peptide composition) [I-121]",4.46 µM
5,B9,≥ 10 µM
6,B10,9.15 µM
7,B11,≥ 10 µM
8,B12,7.01 µM
9,B13,8.66 µM
10,B14,≥ 10 µM
11,B15,7.01 µM
12,B16,≥ 10 µM
13,B17,≥ 10 µM
14,B18,≥ 10 µM
15,B19,4.95 µM
16,B20,6.17 µM
17,B21,≥ 10 µM
18,B22,≥ 10 µM
19,"Ac-FDA[R8]DDAAFV[PyrS″][Phe(3-CONH2)]WQ-NH2 (staple 4-11, Stapled peptide composition) [I-107]",≥ 10 µM
20,B23,≥ 10 µM
21,B24,8.82 µM
22,B25,8.5 µM
23,B26,7.64 µM
24,"Ac-FDA[R8]DDAA[2Nal]V[PyrS″]FWQ-NH2 (staple 4-11, Stapled peptide composition) [I-112]",≥ 10 µM
25,"Ac-FDA[R8]DDAA[2Nal]V[PyrS″]FWQ-NH2 (staple 4-11, Stapled peptide composition) [I-113]",6.2 µM
26,"Ac-FDA[R8]D[1Nal]AAFV[PyrS″]FWQ-NH2 (staple 4-11, Stapled peptide composition) [I-114]",4.74 µM
27,"Ac-FDA[R8]D[2Nal]AAFV[PyrS″]FWQ-NH2 (staple 4-11; also: earlier-eluting HPLC peak (staple isomer), Stapled peptide composition) [I-115]",4.78 µM
